This data set in a line: yeast display, Sf9 membrane polyspecificity reagent, FACS + sequencing; frameworks hold sequencing errors. Put shortly:
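Sorting gates, low and high (top ~1%), were placed on anti-HA fluorescence to track expression and on streptavidin fluorescence to track reagent binding. A clone's polyreactivity label is taken from the gate it came out of. The reagent was 10% biotinylated, detergent-solubilized Sf9 membrane, applied for 1 hour at 4 °C to galactose-induced yeast display cells.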
Consider “QVHHVESGGGLVQARGSLRLSCAASGFIFSSYTMGWYRQAPGKERELLAAITSRGGSTYYADSVKGRVTISRDTAKNTVYLQMNSLKAEDTAVYYCNARRIPYSPYGVHEGNYWGQGTQVTVSS”, for which the “polyreactivity (PSR sort gate)” value is on record as “high polyreactivity”. As to “QVHIVESGAGLVQAGGSLRLSCAASGSIFRYNAMGWYRQAPGKEREFVAAITYSGGSTYYADSVTGRFTISRDNAKNTLFLQMNSLKPEDTAVYYCAAGYCSRGSRDGYWGQGTQVSVSS”, the “polyreactivity (PSR sort gate)” value is on record as “low polyreactivity”.

For the sequence “QVHIVESGGGLVQAGGSLRLSCAASGSNFTLYTMGWYRQAPGKERELVAAISTSGGRTYYADSVKGRFTISRDNAKNTVYLQMNSLKPEDTAVYYCNAGYWYYGQDDYWGQGTQVTVSS”, the “polyreactivity (PSR sort gate)” value is listed as “high polyreactivity”.

Regarding “QVHIVETGGGLFQAGGSLRLSSASSGRIFPVYAMGWYRQAPGKERELVAAISRRGGSSYYEDSVKGRFTISRDNAKNTVYLHMNCLKTEDTEVNYFAATAYYYWWWYGGDMDYWGQGTQVSVSS”, the “polyreactivity (PSR sort gate)” value was “high polyreactivity”. With “QVHLAESAAGLDQAGGRLRLSCAAYGIIFYYYAMGWYRQAPGKERELVAAISGTGGRTYYADSVKGRFTISRDNAKNTVYLQMNSLKPEDTAVYYCNADDTPVPSIRFDSWGQGTQVTVSS”, the “polyreactivity (PSR sort gate)” value is “low polyreactivity”. In the case of “QVHLEESGRRLVQAGGSLRLSCAASGSIFSYYAMGWSRPAPGKEWELVAAISQSGGSTYYADSVKGRFTISGDNAKNTVDLQMNSLKPEDTAVYSCNAVARHTRAKYGSWGQGTQVTVSS”, the “polyreactivity (PSR sort gate)” value is recorded as “low polyreactivity”.

For “QVHLEESWGGLVQAGGSLSISCAASGSIFRPNAMGWYRPAPGKERELVAAINKIGGRTYYADSVKGRFTISRDNAKNTVYLQMNSLKPEDTAVYYCNAGGGYHYWGQGTQVTVSS”, the “polyreactivity (PSR sort gate)” value is given as “high polyreactivity”. With “QVHLGESGGGLVQAGGSLRLSCAASGSIFYGYAMGWYRHAPGKERELVAAITRDGSTNYADSVKGRFTISRDNAKNTVYLQMNSLKPEDTAVYYCAADTRSRRLSLVRRDYWGQGTQVTVSS”, the “polyreactivity (PSR sort gate)” value is “high polyreactivity”. “QVHLQESGGGLMQAGGNLRLSCAASGYISTHYDMDWYRQAPGKERELVARIDDGAITNYADSVKGRFTISRDNAKNTVYLQMNSLKPEDTEVYYCAVYSGDDYYHDYWGQGTQVTVSS”: the “polyreactivity (PSR sort gate)” value is “low polyreactivity”. As to “QVHLQESGGGLVQAGGSLRLSCPASGSISRYYDMGWYRQAPGKEREFVAGISGGAITYYADSVKGRFTISRDNAKNTVYLQMNSLKPEDTAVYYCAADTGVYQYHSYWGQGTQVTVSS”, the “polyreactivity (PSR sort gate)” value is given as “low polyreactivity”. Under “QVHLVDSAGGLVQAGGNLSLSCEASGSIFRAYAMGWYRQAQGKERELVADISRSGGSTYYAESVKGRFTISRDNAKNTVYLQRNSLKPEDTAVSYGAAVFYLFSNLYGEYDYWGQGTQVTVSS” stands “low polyreactivity”; under “QVHLVDSGGGLVQAGGSLRLSSAASGRIFPFYAMGWYRKAPGKERELVAAITSSGGRTYYADSVKGRFTISRDNAKNTVYLQMNSLKPEDTAVYYCAASLVGPFIYSHLYDYWGQGTQVTVSS”, “low polyreactivity”. With “QVHLVDSGGGLVQAGGSLSLSCAYSGSIFLTNAMGWYRHAPGKERELVDAITGDGSTNYADSVKGRFTISRDNAKNTVYLKMNSLIPEDTAVYYCDKDRGWSQWVDYDYWGQGTQVTVSS”, the “polyreactivity (PSR sort gate)” value is “low polyreactivity”. The value for “QVHLVDSGRGLVQAGGSLRLSCAASGSTFAEYVMGRYRQAPGKERELVASIDSGGGTNYADSVKGRFTISRDNAKNTVYLQMNSLKPEDTAVYYCAASGRDIGGYDYWGHGTQVTVSS” was “low polyreactivity”. Take “QVHLVDTGGGLVKAGGSLRLSSAASGSTFEYYSMGWYRQEPGKERQLVPSISSGGSTNYADSVKGRFTISRDNAKNTVYLQMNSLKPEDTAVYYCAAEFAVSFYWSWLGQDYNFWGLGTQVTVSS”: the “polyreactivity (PSR sort gate)” value is listed as “high polyreactivity”. Take “QVHLVESAGGLVQAAASLRLTCSASGNTLGSYAMGWYIQAPGKETKFVATISKRGGSTYYADSVKGRFTISRDNAKNTVYFQMNSLKPEDSAVYYCAAEDEYYGGDEYWGQGTQVTVSS”: the “polyreactivity (PSR sort gate)” value is “high polyreactivity”.

On to “QVHLVESAVRLVQAGGSLRLSCAAPGFTFFSNARGWYRQAHGKERELFASITNDGSTYADSVKGRFTISRDNAMNTVYLQMTSLKPEDTAVYYCAARVPQWRYSRRTRERFDFWGQGTQVTVSS”, for which the “polyreactivity (PSR sort gate)” value was “low polyreactivity”. For “QVHLVESGGALVQAGGSLRLSCAASGRIFGGYTMGWYRQAPGKEREFVAAITSSGGSTYYADSVKGRFTISRDNAKNTVYLQMNSLKPEDTAVYYCAVDDYYYDYDYWGQGTQVTVSS”, the “polyreactivity (PSR sort gate)” value was “low polyreactivity”. In the case of “QVHLVESGGCLVQAGGSLRLSCAASGRIFGLYAMGWYRPAPGKESELVAAISEGGGSTNYADSVKWRFTISRDNAKNTVYLQMNILKPEDTAVYYCAATYRTGVRRYYSWGQGTQVTVSS”, the “polyreactivity (PSR sort gate)” value is “low polyreactivity”.

“QVHLVESGGCLVQAGGSLRLSCAASGSTFSRYAMVWYRQAPGKEREYVAGISWSGGNTYYADSVKGRFTISRDNAKNTVYLQMNSLKTEATAVYYCASDFLDYWGVYGWAEYEYWGQGTQGTVSS”: the “polyreactivity (PSR sort gate)” value is reported as “low polyreactivity”. Consider “QVHLVESGGCLVQAGGTLRLSCAATGSIFYNYDMRWYRQAPGKEREFVAAITWSGTSTYYADSVKGRFTISRDNAKNTVYLQMNSLKPEDSAVYYCNALVRRRPGYIRYDYWGQGTQVTVSS”, for which the “polyreactivity (PSR sort gate)” value is “low polyreactivity”. Take “QVHLVESGGGIVQAGGSLRLSCAASGFTFRRYAMGWYRQAAGKERELVATITKGGGRTYYADSVKGRFTISRDNAKNTVYLQMNSLKPEDTAVFYCNASLTYDYNYWGPGTQVTVSS”: the “polyreactivity (PSR sort gate)” value was “high polyreactivity”. Turning to “QVHLVESGGGIVQAGGSLRLSCAASGRTFVVYAMGWYRPATGKQLELVAAIRRIDGRTYYADSVKGRFTISRDNAKNTVYLQMNCLKPEDTAVYYCAADWVGATGYLYGYWGQGNQVTVSS”, the “polyreactivity (PSR sort gate)” value is given as “low polyreactivity”.

With “QVHLVESGGGLFQAGGRLRLSCAAAGSTFPKYARGWYRQAPGKERELVAAISWSGDSTNYADSVKGRITISRDNAKNTVYVQMNSLKPEDTAVYYCAAYNFIHAGPWEYDYWGQGTQVTVSS”, the “polyreactivity (PSR sort gate)” value was “low polyreactivity”. With “QVHLVESGGGLFQAGGSLRLIFAASGLIFYKNAMGWYRQAPGKERELVAISSSGGSTYYADSVKGRFTISRDNAKNSVYLQMHSLKPEDSAVYYCAARSRRYGGGYWGQGTQVTVSS”, the “polyreactivity (PSR sort gate)” value is listed as “high polyreactivity”. Consider “QVHLVESGGGLFQAGGSLRLSCAASGGIFSIYAMGWYRQAPGKERELVAAISTSGGSTYYADSLKGRFTISRDNAKNSVYLQMNSLKPEDTAVYYCNARRGFYWSWRGRYISGDYWGQGTQVTVSS”, for which the “polyreactivity (PSR sort gate)” value is “high polyreactivity”. As for “QVHLVESGGGLGHAGGSLLLSCAASGSIFGRNAMGWYRQAPGKERELVADIWNGGSTYYADSVKGRFTISRDNAKNTVYLQMNILKPEDTAVYYCNADANDDGRFGGYIKYDYWGQGTQVTVSS”, the “polyreactivity (PSR sort gate)” value is given as “low polyreactivity”. Regarding “QVHLVESGGGLGKAGGSLRLTCAASGSTFKYYAMAWYRQAPGKETELVAAISQRGGSTYYADSVKGRFTISRYNAKNTVYLQMNCLKPEDTAVYYCNAGFQRAYSGPGYDMDYWGQGTQVTVSS”, the “polyreactivity (PSR sort gate)” value was “high polyreactivity”.

Turning to “QVHLVESGGGLLQAGGSLRLSCAASGRTFGHNAMGWNRQAPGKERELVAAISSGGNTYYADSVKGRFTISRDNAKNTVYLQMNSLKPEDTAVYYCAAVTVIGGEYDYWGQGTQVTVSS”, the “polyreactivity (PSR sort gate)” value was “low polyreactivity”. Regarding “QVHLVESGGGLLQAGGSLRLSCAASGTIYGVYAMGWYRQAPEKEGELVAAISWTDGTTYYADSVKGRFTISRDNAKNTVYLQINSLKPEDTAVYYCAAEADVPPYLFGYWGQGTQVTVSS”, the “polyreactivity (PSR sort gate)” value was “high polyreactivity”. For “QVHLVESGGGLVHAGGSLRLSCAASGSTFPGYGMGWYRQAPGQERELVATNRNGGITNYADSVKGRFTISRDNAKNTVYLQMNSLKAEDTAVYYCAADVVQYLYYFRLDYWGQGTQVTVSS”, the “polyreactivity (PSR sort gate)” value was “low polyreactivity”. With “QVHLVESGGGLVKAGGSLRLSCAASGRIFDNYVMGWYRQAPGKERELVAAISSGGGTYYADSVKGRFTISLDNAKNTVYLQMNSLKPEDTAVYYCAAAAYYADFDYWGQGTQVTVSS”, the “polyreactivity (PSR sort gate)” value is on record as “low polyreactivity”. Regarding “QVHLVESGGGLVNAGGTLRLSCAASGSTYSRYAMGWYRQAPVKESELVAAITRSGGSTYYADSVKGRFTISRDNAKNTVYLQMNSLKPEDTAVYYCNRPRLYGGSPYYYWGQGTQVTVSS”, the “polyreactivity (PSR sort gate)” value was “high polyreactivity”.

Turning to “QVHLVESGGGLVQAGCSLRLSCAASGSTISRYAMGWNRQAPGKETELVATITGGGRTYYADSVKGRFTISRDNAKNTVYLQMNSLKPEDTAVYYCAVRGYHQYKYGYWGQGTQVTVSS”, the “polyreactivity (PSR sort gate)” value is “high polyreactivity”. For “QVHLVESGGGLVQAGCSLRLSCAASGSTSASYAMGCDRQAPGKERELVAAISGRGTTTYYADSVKGRFTISRDNAKNTVYLQMNSLKPEDTAVYYCAVYRRGGVEAFLYWGQGTQVTVSS”, the “polyreactivity (PSR sort gate)” value was “high polyreactivity”. Take “QVHLVESGGGLVQAGCSLRLSSSASGFTFVRNAMGWYRQAPGKERELVAAISKSGGRTYYTDSVKGRFTISRDNAKNSVYLHLNSLIPEDTAVYYCASDPVSDYYGYGYWGQGTQVTVSS”: the “polyreactivity (PSR sort gate)” value is “high polyreactivity”.

For the sequence “QVHLVESGGGLVQAGGCLRLSCAASGYIFKSYVMGWYRQAPGKERELVAAITWSGGSTYYADSVKGRFTMSRDNAKNTVYFQMNSLKPEDTAVYYCAAYPRRYRTTYDYWRQGTQVTVSS”, the “polyreactivity (PSR sort gate)” value is given as “high polyreactivity”. Turning to “QVHLVESGGGLVQAGGRLRLSCAASGRIFGTNAMGWYRQAPGKERELVATITRGGGNTYYADSVKGRFTISRDKAKNTVYLQRNSLKPEDTAVYYCAAKFHRFAWFSHYDYWGQGTQVTVSS”, the “polyreactivity (PSR sort gate)” value is reported as “low polyreactivity”.

As to “QVHLVESGGGLVQAGGSHRLSCAASGSIFRYNAMGWYRQAPGKEREFVAIISYSGVRTYYADSVKGRFTISRDNAKNTVYLEMNSLKPEDTAVYYCAADFKQKGHRTRTTYWGQGTQVTVSS”, the “polyreactivity (PSR sort gate)” value is “high polyreactivity”.

For the sequence “QVHLVESGGGLVQAGGSHRLSCAASGSIFWYNAMGWYRQAPGKERELVAGITYGGDTNYADSVKGRFTISRDNAKNTVYLQMNSLKPEDTAVYYCAKRWYGGRRYDYWGQGTQVTVSS”, the “polyreactivity (PSR sort gate)” value is listed as “low polyreactivity”. “QVHLVESGGGLVQAGGSLHLSCAPSGRTFGYYAKGGYRQAPGKEREFVAAISHSAGSTSYADSVKGRFTLSRDNAKNTVYLQMNSLKPEDTAVYYCATPSQLHPYEYWGQGSQVTVSS”: the “polyreactivity (PSR sort gate)” value was “low polyreactivity”.
